According to the supplement of paper PMC10266784:

B1: library; numbered along this chain (parent)
chain: MAAAAAAAAEQQSSNGPVKKSMREKAVERRSVNKEHNSNFKAGYIPIDEDRLHKTGLRGRKGNLAICVIILLFILAVINLIITLVIWAVIRIGPNGCDSMEFHESGLLRFKQVSDMGVIHPLYKSTVGGRRNENLVITGNNQPIVFQQGTTKLSVENNKTSITSDIGMQFFDPRTQNILFSTDYETHEFHLPSGVKSLNVQKASTERITSNATSDLNIKVDGRAIVRGNEGVFIMGKTIEFHMGGNMELKAENSIILNGSVMVSTTRLPSSSSGDQLGSGDWVRYKLCMCADGTLFKVQVTSQNMGCQISDNPCGNTH

Variants of: B1
Experiment: SGCB cell-surface expression functional score (HA stain, bin4 vs bin1, normalised to synonymous) (log10 ratio); higher = more cell-surface SGCB (functional)
Summary of the method: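 The functional score is a log ratio of variant frequency in the highest versus the lowest intensity bin, expressed as a median over codons and duplicate transductions. Codon-saturation libraries of HA-tagged, YFP-fused human beta-sarcoglycan were transduced by lentivirus at MOI <0.1 into HEK293 cells stably expressing alpha-, gamma- and delta-sarcoglycan, and the cells were stained on ice with Alexa Fluor 647 anti-HA, fixed and sorted into four 5% intensity bins before amplicon sequencing. Synonymous variants were scaled to mean 0, SD 0.5 within each section.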

Variant | SGCB cell-surface expression functional score (log10)
A76M | -0.23
R131L | 0.13
S164H | -1.56
D50Q | 0.04
M100D | -1.82
S161F | -0.36
I90C | 0.33
E104I | 0.01
E35P | -0.21
V89Y | -1.29
F102Q | -1.39
Q169S | 0.27
R223Q | 0.48
S13L | 0.02
I225Q | 0.49
G149V | -0.88
A4R | -0.11
A251D | -0.84
L71I | -0.45
G245A | 0.6
K219L | 0.3

Variant | SGCB cell-surface expression functional score (log10)
G222Y | 0.21
M168K | -0.76
R30N | 0.64
V220K | -0.09
G117V | -1.36
R23M | -0.27
I92D | -2.38
I47D | 0.59
A203D | -1.81
L257C | -0.27
D221F | 1
T265H | 0.75
G274F | -0.16
T186C | -0.92
F296M | -0.13
S254C | 0.55
S164W | -2.58
N258G | 0.43
L122N | -0.12
I166N | -0.78
I208W | -1.04

Variant | SGCB cell-surface expression functional score (log10)
I178T | -0.41
S270C | -0.02
R30H | -0.02
L75R | -0.32
R130G | -0.2
V118G | -0.31
M262S | 0.7
N37A | 0.08
D281A | -0.2
Y123E | 0.65
N217L | 0.37
A6F | 0.37
M305V | -0.22
N134K | 0.09
L249P | -0.41
C67H | 0.38
L107Y | -0.27
E248H | 0.87
I69A | -0.17
D221E | 0.01
F189K | -2.58

Variant | SGCB cell-surface expression functional score (log10)
K34N | -0.07
A76C | 0.13
G56Y | 0.34
M100W | -1.82
I256S | 0.62
D183A | 1.15
T213H | -0.04
V298H | -0.85
N229E | 0.51
L153S | -1.03
I78Y | -0.68
N199R | -0.3
G129D | -0.94
D165A | 0.17
Q148K | -0.27
L64W | -0.254
G96P | -1.62
L216W | -0.99
L84Q | 0.78
E185H | -1.02
V283D | -0.63
